The series in a line: soluble on expression in E. coli; label from the status in PepcDB or PDB records.
On to “MKVLKCGVMLLSILFVSQLHVYAEENRWTWPVEGQISDYFGTRHGKHYGIDVAAPIGTPVVAIQDGKVTRSYYSSSYGNVVFIKHGEYEAVYAHLNKRYVNQGDYISKGEKIGEVGNTGESRGAHLHLELHQGRWTMAKKNAMNPLLVLSEQRNEVVSSSLYVVQKGDTLVSIARKFSMTLKEIKEKNGLQQELIYPNQQLYVK”, for which the “soluble on expression in E. coli” value is listed as “not soluble”.

“MAHHHHHHGMTRTRSGSLAAGGLNWASLPLKLFAGGNAKFWHPADIDFTRDRADWEKLSDDERDYATRLCTQFIAGEEAVTEDIQPFMSAMRAEGRLADEMYLTQFAFEEAKHTQVFRMWLDAVGISEDLHRYLDDLPAYRQIFYAELPECLNALSADPSPAAQVRASVTYNHIVEGMLALTGYYAWHKICVERAILPGMQELVRRIGDDERRHMAWGTFTCRRHVAADDANWTVFETRMNELIPLALRLIEEGFALYGDQPPFDLSKDDFLQYSTDKGMRRFGTISNARGRPVAEIDVDYSPAQLEDTFADEDRRTLAAASA”: the “soluble on expression in E. coli” value is on record as “soluble”.

Consider “MTGHRPACPPIPADVYTRLERRIGRCHLNQRLGIEHDFEARIFGQGRTFFHIENWNRLHTLLRRLLKLSLLYRPGQRAARRIEIRRNEFTLPHLPEAFEGYTLLHISDLHLDMAGDLPDALIRAIGQAGHYDACVLTGDFRARTFGPYRGAIDGLAQVRTHIDKPVFAILGNHDTIRMTPEIEDLGIGVLLNEAREIRQDGASIFLAGVDDPHYYRADNIEKAADPIPQGAVSILLSHSPELYRHAAYADFDIMLCGHTHGGQICLPGGIALTLNARCPRAFGRGYWRYHRMQGYTSAGSGVSILDIRLNCPPEITLHRLSRHRLSKGGCECGGGKGLEHHHHHH”, for which the “soluble on expression in E. coli” value is “soluble”.

Regarding “MADRKLVVVFGATGAQGGSVARALLEDGTFRIRVVTRNPEQRAAKELKQQGAEVVRGDQDDAASMELALAGAHATFIVTNYWETCSQDREVQQPHQWDQVFKQGKLLADLAKRLGLHYVVYSGLENIRKLTAGKLAAGHFDGKGEVEEYFRDIGVPMTSVRLPCYFENLLSYFLPQKAADGKSFLLDLPMGDVPMDGMSVSDLGPVVLSLLKKPEEYVGQNIGLSTCRHTAEEYAALLSKHTGKAVHHAKTTPEDYEKLGFQGAQDLANMFRFYTLKPDRNIHLTLRLNPKAQTLDQWLEQHKGDFAQL”, the “soluble on expression in E. coli” value is given as “soluble”. As for “MSLDSKRYTFLLGPGQSCRTATDNFIALYDKRNSLEIKDIENAFNVEALSKEFFGKYKAQYEAFVNYMVDPTNGMRQHFIDTGFDHTGMAADKIRDREEKPIRDYVKKLLGRIVFLHFLQKKGWLGVPASKEWGEGDRDFMLNIFKNANERQKENFLDDILEDLFTEGLDRNRSDQGDLYDTKVEGFRNCRIPYLNGGLFERDILDKKPSHFPASYFNGLLTMLSQYNFTIDENDPNDAEVGVDPEMLGRIFENLLEDNKDKGAFYTPKEIVQYMCRESLIAYLQTDMREEDKECIRQFVTTHDASQLGELKEYIDQKLYDVKICDPAIGSGAFPMGLLRELFFCRSAIEPNIVENAANIKRHIIQNNIYGVDIERGAVDIARLRFWLSLIVDEKSPEALPNLDFKIMQGNSLLEQYKGVDLSTEGHHHHHH”, the “soluble on expression in E. coli” value is listed as “not soluble”. Regarding “MDSSEVVKVKQASIPAPGSILSQPNTEQSPAIVLPFQFEATTFGTAETAAQVSLQTADPITKLTAPYRHAQIVECKAILTPTDLAVSNPLTVYLAWVPANSPATPTQILRVYGGQSFVLGGAISAAKTIEVPLNLDSVNRMLKDSVTYTDTPKLLAYSRAPTNPSKIPTASIQISGRIRLSKPMLIAN”, the “soluble on expression in E. coli” value was “soluble”. “MAHHHHHHMAYLPPNMAERLQMSSSSTEPTTTSSMLPAPHSSANMRHIEGLVVVPGVVKVSRSDVASQYTMPHTNNAPLLFSEPEHRAVDNSSGSNDAQLEPKDPHLGLMPHCLSCTLLTSAGAQEPDDVYGRSMPSSSAVGAVTTELECAVVPTLHASFTPGVSTSIMPAPTEAHSACGSRPLQQPRWGGNYDSGSQCVSFRGADRSNNVSGCGLRLVGDDVEWLQGSFEDSASSPREEVQLSWGHLQRQPCAGKSSAARAVPPALHDVREGTGGEKVLAAHHRFERAVQPQTQRQGVFPSADQENCQAAAMLWAAQQMAVFD”: the “soluble on expression in E. coli” value is “not soluble”. For “MIKGMKTRGERLKARRLELKLTLKQVAEAVGISLPGVQNLERGDVMPSLEIGLSLAKCLRKPVQWILYGTESDPDRVPVIGTTETGPDRDWQPGEPANTERFLPFVSQRNTVYALTVGNQIQRNYQPGDVILVDSSLTLVPGEDVLVCDNNGEITIQRLARYDEQHYYLDSANSQRVIHDKSDLQFVHQVVGTIKSFMVEGR”, the “soluble on expression in E. coli” value is on record as “not soluble”.

Source of the values: the DeepSol protein solubility set.
